This is an account of results in patent publication US20100129369A1 (Eli Lilly, published 2010).

The target of experiment [1] is T1, human c-Met (human, UniProt P08581 25-1390). Nature of the experiment: cell-based or functional assay.
In experiment [2] the target is T1, human c-Met. Nature of the experiment: cell-based or functional assay. This is another data set of the same source.

Where a chain is given by its changes, count along the chain named. Names may count otherwise.

T1 sequence (P08581 25-1390): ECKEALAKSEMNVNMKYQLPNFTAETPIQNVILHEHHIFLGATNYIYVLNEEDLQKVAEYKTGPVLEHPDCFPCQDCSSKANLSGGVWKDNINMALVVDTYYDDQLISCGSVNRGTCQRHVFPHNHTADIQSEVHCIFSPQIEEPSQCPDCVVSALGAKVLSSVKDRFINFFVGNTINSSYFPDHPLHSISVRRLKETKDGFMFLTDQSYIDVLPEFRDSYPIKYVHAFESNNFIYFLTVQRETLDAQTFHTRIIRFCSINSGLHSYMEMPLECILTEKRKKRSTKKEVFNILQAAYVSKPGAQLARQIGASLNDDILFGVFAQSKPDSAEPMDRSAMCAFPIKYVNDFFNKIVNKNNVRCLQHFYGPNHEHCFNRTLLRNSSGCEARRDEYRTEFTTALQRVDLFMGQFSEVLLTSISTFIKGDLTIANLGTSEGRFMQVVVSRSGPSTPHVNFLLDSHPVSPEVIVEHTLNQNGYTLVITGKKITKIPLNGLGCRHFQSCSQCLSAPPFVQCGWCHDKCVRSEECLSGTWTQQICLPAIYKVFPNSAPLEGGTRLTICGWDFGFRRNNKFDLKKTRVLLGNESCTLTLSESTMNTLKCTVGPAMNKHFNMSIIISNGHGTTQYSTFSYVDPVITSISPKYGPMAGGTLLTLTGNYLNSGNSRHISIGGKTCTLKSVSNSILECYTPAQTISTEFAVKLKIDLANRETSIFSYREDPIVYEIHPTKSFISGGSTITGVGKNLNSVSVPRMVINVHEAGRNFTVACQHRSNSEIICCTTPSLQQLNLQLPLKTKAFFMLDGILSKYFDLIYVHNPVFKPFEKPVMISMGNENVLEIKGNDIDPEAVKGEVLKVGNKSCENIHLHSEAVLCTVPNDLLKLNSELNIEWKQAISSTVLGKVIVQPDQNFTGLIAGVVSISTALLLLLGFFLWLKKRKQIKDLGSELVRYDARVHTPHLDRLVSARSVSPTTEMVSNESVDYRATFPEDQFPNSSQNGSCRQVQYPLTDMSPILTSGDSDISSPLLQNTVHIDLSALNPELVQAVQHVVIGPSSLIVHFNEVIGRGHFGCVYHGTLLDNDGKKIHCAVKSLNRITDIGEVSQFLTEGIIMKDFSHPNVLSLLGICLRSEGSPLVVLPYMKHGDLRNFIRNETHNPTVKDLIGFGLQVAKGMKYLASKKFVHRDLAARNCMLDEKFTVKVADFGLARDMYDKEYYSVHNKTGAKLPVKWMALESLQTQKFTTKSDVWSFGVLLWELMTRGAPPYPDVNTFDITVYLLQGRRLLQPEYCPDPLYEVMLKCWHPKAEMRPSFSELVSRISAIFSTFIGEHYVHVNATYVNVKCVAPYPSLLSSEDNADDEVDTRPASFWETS

B1: D11-C27G3 (antibody, human IgG2, kappa, V domains shown)
VH: QVQLVQSGAEVKKPGSSVKVSCKASGYTFTSRYIHWVRQAPGQGLEWMGWIYPVTGDTYYREPFKGRVTITADKSTSTAYMELSSLRSEDTAVYYCARGYGAFYYWGQGTLVTVSS
VL: EIVLTQSPGTLSLSPGERATLSCSVSSSISSTNLHWYQQKPGQAPRLLIYGTSRLRSGIPDRFSGSGSGTDFTLTISRLEPEDFAVYYCQQWSSYPYSFGQGTKLEIKR
Take B1: in the experiment with human c-Met [1], the “3H-Thymidine Incorporation in Caki-1 Cells in the Absence of HGF (AVG CPM), antibody dose 0.1 ng/mL” value worked out at 17700 CPM; the “3H-Thymidine Incorporation in Caki-1 Cells in the Absence of HGF (AVG CPM), antibody dose 0.4 ng/mL” value is 13600 CPM; the “3H-Thymidine Incorporation in Caki-1 Cells in the Absence of HGF (AVG CPM), antibody dose 2.6 ng/mL” value is 13300 CPM; the “3H-Thymidine Incorporation in Caki-1 Cells in the Absence of HGF (AVG CPM), antibody dose 15.4 ng/mL” value amounted to 13800 CPM. Besides, in the experiment with human c-Met [1], the “3H-Thymidine Incorporation in Caki-1 Cells in the Absence of HGF (AVG CPM), antibody dose 92.6 ng/mL” value is 14700 CPM; the “3H-Thymidine Incorporation in Caki-1 Cells in the Absence of HGF (AVG CPM), antibody dose 555.6 ng/mL” value was determined as 14500 CPM; the “3H-Thymidine Incorporation in Caki-1 Cells in the Absence of HGF (AVG CPM), antibody dose 3333.3 ng/mL” value stood at 15800 CPM; the “3H-Thymidine Incorporation in Caki-1 Cells in the Absence of HGF (AVG CPM), antibody dose 20000.0 ng/mL” value was determined as 16100 CPM. Further, in the experiment with human c-Met [2], the “3H-Thymidine Incorporation in Primary Human Hepatocytes in the Absence of HGF (average), dose 0.0032 ug/mL” value is 693; the “3H-Thymidine Incorporation in Primary Human Hepatocytes in the Absence of HGF (average), dose 0.016 ug/mL” value came to 892; the “3H-Thymidine Incorporation in Primary Human Hepatocytes in the Absence of HGF (average), dose 0.08 ug/mL” value was 1280; the “3H-Thymidine Incorporation in Primary Human Hepatocytes in the Absence of HGF (average), dose 0.4 ug/mL” value was found to be 1750. In the experiment with human c-Met [2], the “3H-Thymidine Incorporation in Primary Human Hepatocytes in the Absence of HGF (average), dose 2 ug/mL” value is 1870 and the “3H-Thymidine Incorporation in Primary Human Hepatocytes in the Absence of HGF (average), dose 10 ug/mL” value worked out at 2150.

B2: D11-S17Y (antibody, human IgG2, kappa, V domains shown)
VH: B1 VH with R61N, P63K
VL: B1 VL with R54Y, R56A
As for B2, in the experiment with human c-Met [1], the “3H-Thymidine Incorporation in Caki-1 Cells in the Absence of HGF (AVG CPM), antibody dose 0.1 ng/mL” value turned out to be 15900 CPM; the “3H-Thymidine Incorporation in Caki-1 Cells in the Absence of HGF (AVG CPM), antibody dose 0.4 ng/mL” value came to 14600 CPM; the “3H-Thymidine Incorporation in Caki-1 Cells in the Absence of HGF (AVG CPM), antibody dose 2.6 ng/mL” value is 14900 CPM; the “3H-Thymidine Incorporation in Caki-1 Cells in the Absence of HGF (AVG CPM), antibody dose 15.4 ng/mL” value worked out at 14600 CPM. Further, in the experiment with human c-Met [1], the “3H-Thymidine Incorporation in Caki-1 Cells in the Absence of HGF (AVG CPM), antibody dose 92.6 ng/mL” value worked out at 15300 CPM; the “3H-Thymidine Incorporation in Caki-1 Cells in the Absence of HGF (AVG CPM), antibody dose 555.6 ng/mL” value was found to be 16600 CPM; the “3H-Thymidine Incorporation in Caki-1 Cells in the Absence of HGF (AVG CPM), antibody dose 3333.3 ng/mL” value is 17900 CPM; the “3H-Thymidine Incorporation in Caki-1 Cells in the Absence of HGF (AVG CPM), antibody dose 20000.0 ng/mL” value came to 18600 CPM. Also, in the experiment with human c-Met [2], the “3H-Thymidine Incorporation in Primary Human Hepatocytes in the Absence of HGF (average), dose 0.0032 ug/mL” value was 726; the “3H-Thymidine Incorporation in Primary Human Hepatocytes in the Absence of HGF (average), dose 0.016 ug/mL” value worked out at 920; the “3H-Thymidine Incorporation in Primary Human Hepatocytes in the Absence of HGF (average), dose 0.08 ug/mL” value was 1460; the “3H-Thymidine Incorporation in Primary Human Hepatocytes in the Absence of HGF (average), dose 0.4 ug/mL” value amounted to 1910. Further, in the experiment with human c-Met [2], the “3H-Thymidine Incorporation in Primary Human Hepatocytes in the Absence of HGF (average), dose 2 ug/mL” value is 2570 and the “3H-Thymidine Incorporation in Primary Human Hepatocytes in the Absence of HGF (average), dose 10 ug/mL” value is 3160.
